The text below walks through data of paper PMC8009048 (Science (New York, N.Y.), 2017).

The assay has as its target HOXB13 DNA binding domain fragment (residues 209-283) (human, UniProt Q92826 209-283). The assay can be described thus: crystal structure.

HOXB13 DNA binding domain fragment (residues 209-283), sequence (Q92826 209-283): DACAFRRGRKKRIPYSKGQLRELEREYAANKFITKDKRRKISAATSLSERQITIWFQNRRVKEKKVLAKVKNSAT

B1: MEIS1 DNA binding domain fragment (residues 279-333) (domain or fragment, human, UniProt O00470 279-333, looked up)
chain: FPKVATNIMRAWLFQHLTHPYPSEEQKKQLAQDTGLTILQVNNWFINARRRIVQP
Turning to B1, the binding result is recorded as “binds”.
